Source: article PMC8761494, “Structural basis of Nrd1–Nab3 heterodimerization” (Life Science Alliance, 2022)
“And” between values parts separate entries of the source, which are not always exact repeats. Identical values can stand only once. Like-named read-outs stand apart in the source and are kept apart here.

T1: Nrd1 part (residues 158-222) of the Nrd1_(158-222)-Nab3_(202-261) chimera (S. cerevisiae, UniProt P53617 158-222)
T1 construct: also called Nrd1 segment of the Nrd1–Nab3 chimera; source: E. coli BL21(DE3), purified (IMAC, TEV digestion, second IMAC, gel filtration); not shown: TxA (E. coli thioredoxin A), N-terminal, cleaved; His6, N-terminal, cleaved
T1 sequence (looked up): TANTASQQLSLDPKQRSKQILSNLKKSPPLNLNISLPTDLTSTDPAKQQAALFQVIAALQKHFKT

T2: Nrd1_(1-222) (S. cerevisiae, UniProt P53617 1-222)
T2 chain: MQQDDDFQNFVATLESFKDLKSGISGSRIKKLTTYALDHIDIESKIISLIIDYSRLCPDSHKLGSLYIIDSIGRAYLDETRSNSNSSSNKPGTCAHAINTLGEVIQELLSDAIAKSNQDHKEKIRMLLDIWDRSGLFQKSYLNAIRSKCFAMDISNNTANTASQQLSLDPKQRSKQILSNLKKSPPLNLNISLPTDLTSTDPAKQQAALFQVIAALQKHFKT

T3: Nrd1_(147-222/290-489) (S. cerevisiae, UniProt P53617 147-489, lacking residues 223–289)
T3 sequence: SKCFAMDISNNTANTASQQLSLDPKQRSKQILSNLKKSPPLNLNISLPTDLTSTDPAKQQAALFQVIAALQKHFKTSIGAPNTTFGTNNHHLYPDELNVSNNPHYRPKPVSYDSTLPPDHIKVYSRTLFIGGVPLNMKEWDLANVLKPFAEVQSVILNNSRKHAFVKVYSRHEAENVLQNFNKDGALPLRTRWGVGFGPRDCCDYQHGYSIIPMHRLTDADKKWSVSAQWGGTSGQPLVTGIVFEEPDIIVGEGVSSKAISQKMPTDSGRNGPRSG

T4: txA-HTEV-Nrd1_(147-222) NAID (S. cerevisiae, UniProt P53617 147-222)
T4 chain: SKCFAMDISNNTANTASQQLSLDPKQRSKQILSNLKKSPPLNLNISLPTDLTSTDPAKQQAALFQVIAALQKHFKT

T5: Nrd1_(1-222) (S. cerevisiae, UniProt P53617 1-222)
T5 construct: also called Nrd1 construct including the CID and NAID; source: E. coli BL21(DE3), purified (IMAC, TEV digestion, second IMAC, gel filtration); not shown: TxA (E. coli thioredoxin A), N-terminal, cleaved; His6, N-terminal, cleaved
T5 sequence (looked up): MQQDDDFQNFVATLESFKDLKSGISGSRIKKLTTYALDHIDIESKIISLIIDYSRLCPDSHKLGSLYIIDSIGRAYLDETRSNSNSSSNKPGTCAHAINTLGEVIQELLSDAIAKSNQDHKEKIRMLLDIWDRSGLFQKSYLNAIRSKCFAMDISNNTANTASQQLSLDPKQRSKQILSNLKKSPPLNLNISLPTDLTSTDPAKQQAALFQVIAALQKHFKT

T6: Nrd1_(147-222/290-489) (S. cerevisiae, UniProt P53617 147-489, lacking residues 223–289)
T6 construct: no linker is mentioned; source: E. coli BL21(DE3), purified (IMAC, TEV digestion, second IMAC, gel filtration); not shown: TxA (E. coli thioredoxin A), N-terminal, cleaved; His6, N-terminal, cleaved
T6 sequence (looked up): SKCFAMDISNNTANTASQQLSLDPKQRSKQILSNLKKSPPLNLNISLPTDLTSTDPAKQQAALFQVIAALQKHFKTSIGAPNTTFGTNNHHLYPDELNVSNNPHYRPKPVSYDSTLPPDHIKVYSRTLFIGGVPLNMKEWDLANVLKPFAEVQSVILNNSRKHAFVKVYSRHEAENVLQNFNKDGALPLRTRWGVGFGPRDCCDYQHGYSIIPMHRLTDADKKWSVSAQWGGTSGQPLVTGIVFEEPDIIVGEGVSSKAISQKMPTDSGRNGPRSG


What was measured:
[1] = target: T1, Nrd1 part (residues 158-222) of the …; assay: NMR structure; the two stretches joined on one chain (chimera Nrd1_(158-222)-Nab3_(202-261)); 10 mM sodium acetate pH 5.1, 25 mM NaCl, 1 mM DTT, 25°C, ~1 mM protein; conditions: both partners purified
Nrd1_(1-222) [2] = target: T2, Nrd1_(1-222); assay: ITC
Nrd1_(147-222/290-489) [3] = target: T3, Nrd1_(147-222/290-489); assay: ITC
Nrd1_(1-222) [4] = target: T2, Nrd1_(1-222); assay: ITC
[5] = target: T4, txA-HTEV-Nrd1_(147-222) NAID; assay: ITC
Nrd1_(147-222/290-489) [6] = target: T3, Nrd1_(147-222/290-489); assay: ITC; remark: listed apart in the source
Nrd1_(1-222) [7] = target: T2, Nrd1_(1-222); assay: ITC
[8] = target: T4, txA-HTEV-Nrd1_(147-222) NAID; assay: ITC
Nrd1_(147-222/290-489) [9] = target: T3, Nrd1_(147-222/290-489); assay: ITC; remark: listed apart in the source
Nrd1_(1-222) [10] = target: T5, Nrd1_(1-222); assay: ITC; Nab3_(191-261) (198 μM) in the syringe titrated into Nrd1 variants in the cell (19-54 μM); 15°C; 20 mM potassium phosphate pH 7.0, 150 mM NaCl, 1 mM β-mercaptoethanol; one-site binding model; duplicates; conditions: both partners purified
Nrd1_(147-222/290-489) [11] = target: T6, Nrd1_(147-222/290-489); assay: as above; conditions: both partners purified

binding result [1] | Kd (Nrd1_(1-222) [2]) | Kd (Nrd1_(147-222/290-489) [3]) | Ka (Nrd1_(1-222) [4]) | Ka [5] | Ka (Nrd1_(147-222/290-489) [6]) | Kd (Nrd1_(1-222) [7]) | Kd [8] | Kd (Nrd1_(147-222/290-489) [9]) | stoichiometry N (Nrd1_(1-222) [10]) | fold tighter binding than with Nrd1_(1-222) (Nrd1_(147-222/290-489) [11]) | Binder
binds |  |  |  |  |  |  |  |  |  |  | Nab3 part (residues 202-261) of the Nrd1_(158-222)-Nab3_(202-261) chimera (domain or fragment, S. cerevisiae, UniProt P38996 202-261, looked up, Nab3, S. cerevisiae, residues 202-261; also called Nab3 segment of the Nrd1–Nab3 chimera; source: E. coli BL21(DE3), purified (IMAC, TEV digestion, second IMAC, gel filtration)) NMENVNYDLLQKQVKYIMDSNMLNLPQFQHLPQEEKMSAILAMLNSNSDTALSVPPHDST
 | 130 nM | 36 nM | 7.22e+06 M⁻¹ | 4.06e+07 M⁻¹ and 4.34e+07 M⁻¹ | 4.97e+07 M⁻¹ | 140 nM | 23 nM and 25 nM | 20 nM | 0.4 | ~4 fold | Nrd1 interaction domain of Nab3 (Nab3 191-261) (domain or fragment, S. cerevisiae, UniProt P38996 191-261, looked up, 15N/13C-labelled or unlabelled for NMR; natural abundance for ITC; also called NRID; Nab3 NRID; source: E. coli BL21(DE3), purified (IMAC, TEV digestion, second IMAC, gel filtration); not shown: TxA (E. coli thioredoxin A), N-terminal, cleaved; His6, N-terminal, cleaved) REENDNTHFPTNMENVNYDLLQKQVKYIMDSNMLNLPQFQHLPQEEKMSAILAMLNSNSDTALSVPPHDST
